# Assay: soluble fraction after stress (log2 fold change); higher = more stays soluble; pooled small domains, quantitative proteomics
# Conditions: stress: pH 4
# How it was run: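 How much of each domain stays soluble after acid stress, expressed as a fold change, is used to gauge aggregation propensity. Pooled custom libraries of small domains underwent pH 4 stress before high-throughput quantitative proteomics. A higher log2 value means more of the domain stayed soluble.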
row,Sequence,soluble fraction (log2)
1,HMRNANENTLKDLPVAVPNIHVSNIEEKKDFHLIQLEYSQEFDPREDLFNFAVNSSWVILKMTPT,≥ 0.43
2,HMRNDIFDQLTEREMQILQEVAKGYRNKQIADHLFISESTVKVHMKSLLKKLQVPSRTAATVLYLERYG,-0.406
3,HMRNEFEAHSDGTRIQLNDRSKATFSVYDVQGRLIHSFQDFSGSSFNIEPKNQLLIITRETAEGVSVKKLV,-0.322
4,HMRNKTVKEVLDYIEKNSEFIFFYYSKAIDTKRIVSLSVKDQPITVILDQLFKNTDVLYEIKDRQISLKRE,-0.508
5,HMRNTETMKEIQAFVEDYFFEYHQSPSMQKVADAIGTSKSTAYYYVMEMARNGMLHYDGKTIETPHTQKS,0.285
6,HMRPDDPYLVIGASREMGDEELKRHYRRLVAETHPDRGIARGLPAEAIAIATRRLAAINAAWDAIERERGL,-0.158
7,HMRPDSFEAGEAEAGSRLDRLLAARLGIPRNQVQQWIGGGRVTVDAEPVRASLVVRAGMRIAWDPPPPP,0.0905
8,HMRPEKLVLKALRGAHGPLSAEEVAGRIEADGGAGLDVARVEHVLGQLERSGTVAALGGGKYLALR,0.123
9,HMRPHDDHLREQLLGIATETIARTGVEGLSLRTLATDAGTSTSAVYQLFGSRAALLDAVYLRVLE,-0.733
10,HMRPLISQTLRIDRGEGDIAGPLGVLAKEYPHLSMGSYPFQKDGIYGAHVVIRGSDPGMVEAAMDKLKAAF,-0.0188
11,HMRPLTPLEKLTPDADGKYYHIVQSGETLSWIAKLYETTAEKLQAWNNLFSSDIFPNQKLLLQVTPP,-0.123
12,HMRPPLEWGTHGEITTRTVASGYVRASARVRLWDGELQRMTATASTASDARASLQHRIAERLRFSEL,-0.0592
13,HMRPPLRAAIIDHLARDWHTVAELARLLPASGAHVSRLVVELRAVGAVDERISHPDWPGNRPTEYRLRRA,-1.05
14,HMRPTHYSGPSVIAMINNRVWFSDGSRLAPGEHHDDLEVVGLSPPWSAKVRWQGVEFDVGLFE,-0.946
15,HMRQGHLDLLRQIHALPPSTREVVYLRAFGGLSFREIGDVLGRTETWARVTFYRGKEALRKG,-0.275
16,HMRQHHMIISTKLGTPKEELAKLVSGFEDQGLRVSVITGTDYTVIGLVGDTTHLDEKRIRANPYVDNVQRV,0.0502
17,HMRQIMIIVLKSTATKEDSLLFKNKLEQEYGVKVNEWTGVESTVLGLIGDTTKIDIDYISAQDIVESVKRV,-0.494
18,HMRQKTTFFATESFELPNGEKVEEGQIFRLNDGAFNIAEQQGITRFLTSEANYGRMIAANAEVEKAKLDA,-1.05
19,HMRQLISIYNNTIGADEIDQMRNILSNSGYKEGVDFAVQTADKKSVILVRRDLAGMIQEQLSGEGLPS,-0.18
20,HMRQNPESFLNHKVKKNESLESLTKKYELTENEIIFYNPLIQKIGLKKRMILKIPIYNNQNLVTKSVD,-0.161
21,HMRQPRGQRVTVREASSLLPFLFAHLTDRSRSAVKSLLRHGQIWVNGRVTTHFDMPLRPGDTVLISHERG,-0.233
22,HMRQSQEVSGGERYRRLTAYLDTHPFITRKEYSGITGLLKNKALNDLNLLVNKGYLEAMGRGSHKVYVRPM,0.321
23,HMRQSSLRTRELLIDAARQLFARFGVEKTTMNDIAEASKRGRRTVYMYFNSKSDVFYAVVGRE,-0.116
24,HMRQVFPNPSSSQIKLASSRIGQAFSILDQQGRVVLSGKVSEEAVIALENLAKGIYVLKIGSWSETILK,0.00122
25,HMRRATLERLANNTAEKAIRYKRSLALEPMNPQERRIIHAALQEVEGVSTHSVGTEPNRKVIVVPDGV,-0.186

row,Sequence,soluble fraction (log2)
1,HMRRFEFSDGSSNKFWQITRDGTSLTVTFGKIGTAGQTQLKELATEAAAIAEHDKLVKEKTKKGYAEVG,-0.157
2,HMRRGFGYVRKLPSGRWQASFVGPDLARHSAPHTFETKGDAEGWLGRRQADVVAGEWRPPVP,0.321
3,HMRRISLEDWQLIESLIRRDWSPEQISLWLKKYKKIRVSHEWIYQYILKDKSKAGDLHTHLRSR,-0.419
4,HMRRKNQVQSSYQKRENGTYTVRFFLSDDMGSIMDLQLMATREDMARALRERFLKDPEKIYGQIMQMLLR,0.241
5,HMRRLGTTEIAGILRREISQGILIAKERLPSERSLADTYGVARGTVRQALNLLAREGLVQIRRSSGAYVTF,-0.299
6,HMRRMAYLVGQRGLAMGDFISGTGQVRIGDTVWRAEAVEGELVRTGDTVVVEGAKMTTAIVRRVM,-0.302
7,HMRRRKPLVSYEYGTRVYAPSEGEPRYRVVATDADGQRVFAKFSSEEAARHRAREIEGRLATS,0.0937
8,HMRRSSQQLTLTEVSTIKEMVTSEEYRHVPTGTLALLAQRLRKVFASSSTWYRLVRIYKWRRPRGRIH,0.296
9,HMRRSVYQANVLDAIKHLVDQNELATTKAIAEYIGDDYQGNVSRAIRELLADRKIKKLPKVGVLQPYEA,0.127
10,HMRRVEDVRTALEHFAAARNTTPMAMTLDQRREAMRELAASGLLNLRRALSEVAQTLGVARSTVYTYLP,≥ 0.43
11,HMRSAKEYKAIREEIYRFIGAYITKHVYAPSNKEIAEAVGISGTTVHRHLIDMIDEGILETD,-1.29
12,HMRSFGTLRRLPSGRYQASYAGPDLRRHAAPTTFETKLDAEGWLRDEHRMIERDEWTAPAARSQLK,0.0606
13,HMRSFRIGGLVEQGSIARDGQSLTVRFAVTDLAHKIPVTYTGLLPDLFKEGKGVVAEGKLGPDGVFHASQV,-0.705
14,HMRSPIWKSITATLTAEIAGGQYRAGDKLPTEAELSQRFGVNRHTLRRALAEMAGAGLVVARRGAGVFVQG,-0.289
15,HMRSPLYVQIKQHILGDIRKGVWKPGEKLPTELDLAERFGVSVGTVRRAMGGLEDEGIISRREGSGTFVRT,0.229
16,HMRSSAATMFGRIALKNKLVDEATLKKVMSELPAGADLGAVLVKQGLISEQHAEAIQKKITAHMKSAP,0.0511
17,HMRSSALDEIPGIGKQRKKNLLVHFTSVAKIKEASLDEIAAVPGMNRKAALVVVEFFQNQERE,0.158
18,HMRSSNEAVSQRRDKILDYISATGRTSTEIVAKEFGVSVMTARRDLLYLMEKRLISKSSSGLFKVDNN,0.408
19,HMRTIGDSVYEKIKYDIVHLTLKPGEKLSEASLAEKYGISKAPIRVALRKLQEEGLIVIRPQSGSIVSP,0.0262
20,HMRTMRHLSVPRQETQQILSQLKAEFALPQGARVQPDPSDSKRTLIPVKEGAESELLSRYPVVHAEP,0.11
21,HMRTNNEITSYKLKSGKKRWKFQTYLGLDDKGQKVSVTRQGFRTYNEAISEYNKLRAQGTQGYQ,≥ 0.43
22,HMRTPTGVQAYLSSGLIKGIGEKTAAAIVDKFGTDALSVIETDPERLLEIPGITPNKLREILESYNQH,0.174
23,HMRTVAERYGLTAGQWRVLELLTQGKTNRQIAEMLDVTEGTVKIHVSAIFKAMKVTNRTQALLLAKKH,-0.522
24,HMRTYDPQAVELNNKALELINQGRLDSALLVYDQSIKTDKTYYFPHIGKSIIYMRKKDWNKAFEETQQAIK,0.0261
25,HMRVDLATEVHSVLRRMMSRPPTLQEIRADLDGEEPGRVHEALDALRAAFRGGRGPKNPYESLKRSLRRG,-0.126

row,Sequence,soluble fraction (log2)
1,HMRVDLVQRLARHGLSPRQSAVAGGVLRGLDNGEISRQLYIAEQTVKDHLHEIYHRLGVHTRTELLIKVLG,-0.359
2,HMRVGISRNSGAAGIAVWLTQKLGRPVAKTEEIVHILKNWVDDQYEAGRVTNIGDGELWSVYKQMEAEE,0.0584
3,HMRVTEIDYGAFMKMIEEKNIGEVKVEDYEIVFTDKDNKNIYKTGIMDDPDLTQRLYNSGAVFA,-1.22
4,HMRWGDPLTVKVPSFIGQTKDDIAKQHYPFRIEWHGEGAKIGSQLPEVDSVIKQDGTIHLYLV,-0.0995
5,HMRYFDDEELNNKFLEFLSMRKKIRKPVRTDRALKALLKKLHELSGGDVGLMKQIIDQSLDKEWLGLFEL,-0.6
6,HMRYNPETTAGRRGLIIKMLDEYGQVNVNELSRYFNVSEVTVRNDLAYLERKNLLIRARGGAIKTE,0.0289
7,HMRYWVKSETDFLIENRGKYSYQEFADMLGRSYAVVYDKMHQLKIDYTKEELEIFDEKHKAQMREKQQR,-0.665
8,HMSAAPVGPWALSEFLDAVEKDSVERVTFDDAGKALVAVDADGGRHRVEILPSEGPEILAALRKHSVQFA,-0.346
9,HMSADEVSQQLTSEQTKSKSYQALLQAYAAYQQKSFDDAALELQNVQQDVLSDSQKTIYNTISQAVNS,-0.0227
10,HMSADISIGYNIPKGSVTVSAGGRTLQEGIDYDINYDLGTIKITNQAILNAGLPVQVNFENNAS,-0.212
11,HMSADLVYLRKRLQDAIAQLPENMRTAYTLFQIANRSIREISELTGASESLVKVRIHRAKGKLQKQLEDLK,-0.5
12,HMSAEDYLERIHELIESKGTAHVADIAQSLGVGKPSVTSMVQKLADEGYLNYEKYRSLTLTDSGRSIA,0.0599
13,HMSAEDYMEMIYRLSQENGFTRVNDLASALNVQPPSVTRMIQKLAELNLIKYEKYGVIMLQPYGIEVGRSL,-1.47
14,HMSAEGPALADWVVRDAHSIGAKITNSVAQLLIDRVGHNQQLLHNELQKLALVQTDISAELVKTMSHY,-0.0595
15,HMSAETRSWTDAQGNQTQAVLRGFDGGDVLLQNAAGKTLRVPVKNLSEDDQRYVVLNISTLID,-0.594
16,HMSAITLDQARAIALDHAGISEGDATFVKEQTGTSSYEIEFYSGSNEYDYEIDKATGAILNVDR,0.22
17,HMSALAEELIKKNQAMILTIKPRDTIWGIANRFQSPPSEKFINQIIELNQVDPYRLRIGQDLLIPLN,0.00792
18,HMSALTDQQQRVLELVASGLVYKEVAAALSISEPTVKYHMGNILTRLHVKNRAQAIAAARQQGLL,-0.26
19,HMSAMKYTSEVFQRLSRGQFISSNSIDAETRAIYSDIEENQQEYEDYFSKIDFLLSSGDGFYYFSRK,-1.22
20,HMSAMSPTEVGERLRLAREAVRMTQKQAADAISVARTTLVAIEQGQRRVRIDELQQLAKTYGVSVNAILR,0.27
21,HMSAPAKKPKIKVDLSKVHAGTIVRHKGYGLGQVKGIDGAIIVVTFDGVDKKFQFPGGFENGFLFLTED,-1.21
22,HMSAPLKELGNDPESGKPIVVKDGRFGAYVTDGETNATLRKTDAVESLTPERAAELLAEKRAKG,0.199
23,HMSAPTAFSERELELLAGMRRGASNKAMAEQLFISVNTVKYHRANLMRKLGARDRNEALEVAARLG,-0.179
24,HMSAQDLIVKTDATQVEARVLEISPEQIRYKRFSNPDGPTYVLPVDAVDYIRYANGETDSFR,-0.446
25,HMSASAIYVRPKDVKEPEEVADYLSGVLELDREKLYKKITDKSQWIALIERKVDNDIAFDIRNKKFKGIEI,-0.784

# Source: the domain aggregation screens of Martell et al. (2025)
